# Laboratory results published in paper PMC7803741, “Structural basis of GABARAP-mediated GABAA receptor trafficking and functions on GABAergic synaptic transmission” (Nature Communications, 2021).
# T1: clathrin adaptor protein AP2 (AP2 μ1 subunit) (rat, UniProt P84092 158-435)
# T1 construct: AP2 μ1 subunit as printed, rat, UniProt P84092; the limits rest on the primer list; also called AP2 WT; source: E. coli BL21 (DE3), purified (nickel-NTA, size exclusion)
# T1 sequence (looked up): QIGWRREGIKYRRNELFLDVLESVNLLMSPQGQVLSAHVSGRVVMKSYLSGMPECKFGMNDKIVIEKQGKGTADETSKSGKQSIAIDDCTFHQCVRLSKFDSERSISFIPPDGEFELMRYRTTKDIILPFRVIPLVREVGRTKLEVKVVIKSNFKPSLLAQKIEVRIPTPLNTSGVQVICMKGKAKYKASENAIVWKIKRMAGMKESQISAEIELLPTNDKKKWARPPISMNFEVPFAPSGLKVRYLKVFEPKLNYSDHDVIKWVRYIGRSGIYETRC
# T2: clathrin adaptor protein AP2 (AP2 μ1 subunit as printed) (rat, UniProt P84092 1-435)
# T2 construct: AP2 μ subunit (printed 'AP2 μ1 subunit'), rat, UniProt P84092; the full-length gene was amplified and shorter fragments were generated; Only the μ subunit is named as cloned; the text calls the protein 'AP2'; source: E. coli BL21 (DE3), purified (nickel-NTA, size exclusion)
# T2 sequence (looked up): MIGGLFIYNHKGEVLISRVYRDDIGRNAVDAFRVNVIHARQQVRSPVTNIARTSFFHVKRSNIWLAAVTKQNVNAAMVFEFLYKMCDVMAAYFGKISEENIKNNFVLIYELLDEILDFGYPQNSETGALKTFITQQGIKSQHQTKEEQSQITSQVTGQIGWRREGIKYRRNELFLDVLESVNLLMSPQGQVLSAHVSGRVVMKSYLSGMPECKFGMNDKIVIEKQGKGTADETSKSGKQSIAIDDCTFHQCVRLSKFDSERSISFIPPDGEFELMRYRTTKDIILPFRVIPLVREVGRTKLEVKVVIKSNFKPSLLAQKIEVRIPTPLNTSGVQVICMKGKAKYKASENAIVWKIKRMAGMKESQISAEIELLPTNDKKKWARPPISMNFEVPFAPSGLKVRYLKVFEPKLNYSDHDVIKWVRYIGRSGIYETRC
# B1: GABAA receptor γ2-GIM E406R (peptide, UniProt P22723-2 398-415, looked up)
# chain: ERDEEYGYRCLDGKDCAS
# notes: source: E. coli BL21 (DE3), purified (nickel-NTA, size exclusion)
# B2: GABAA receptor γ2-GIM E402T (peptide, UniProt P22723-2 398-415, looked up)
# chain: ERDETYGYECLDGKDCAS
# notes: as for B1
# B3: GABAA receptor γ2 subunit GIM (GABARAP interacting motif, 398-415) (peptide)
# chain: ERDEEYGYECLDGKDCAS
# notes: also called γ2-GIM; source: E. coli BL21 (DE3), purified (nickel-NTA, size exclusion)
# B4: GABAA receptor γ2 subunit 398-424 (domain or fragment, mouse)
# chain: ERDEEYGYECLDGKDCASFFCCFEDCR
# notes: as for B1
# B5: γ2-GIM Y403E variant (phosphomimic mutation) (peptide, UniProt P22723-2 398-415, looked up)
# chain: ERDEEEGYECLDGKDCAS
# notes: as for B1
# B6: γ2-GIM E402T variant (peptide, UniProt P22723-2 398-415, looked up)
# chain: ERDETYGYECLDGKDCAS
# notes: as for B1
# B7: GABAA receptor γ2 subunit 375-442 (full length TM3-TM4 ICD) (domain or fragment, mouse, UniProt P22723-2 375-442, looked up)
# chain: PAPTIDIRPRSATIQMNNATHLQERDEEYGYECLDGKDCASFFCCFEDCRTGAWRHGRIHIRIAKMDS
# notes: GABAA receptor γ2 subunit, mouse, UniProt P22723-2, residues 375-442 (TM3-TM4 intracellular domain); also called GABAA receptor γ2 375-442; source: E. coli BL21 (DE3), purified (nickel-NTA, size exclusion)
# B8: full length TM3–TM4 ICD (residues 375–442) of the GABAA receptor γ2 subunit (domain or fragment, mouse, UniProt P22723-2 375-442, looked up)
# chain: B7 chain
# notes: GABAA receptor γ2 subunit, mouse, UniProt P22723-2, residues 375-442; also called TM3–TM4 intracellular loop; source: E. coli BL21 (DE3), purified (nickel-NTA, size exclusion)
# B9: GABAA receptor γ2 subunit 404-442 (domain or fragment, mouse)
# chain: GYECLDGKDCASFFCCFEDCRTGAWRHGRIHIRIAKMDS
# notes: GABAA receptor γ2 subunit, mouse, UniProt P22723-2, residues 404-442; also called GABAA receptor γ2 404-442; source: E. coli BL21 (DE3), purified (nickel-NTA, size exclusion)
# B10: AnkG-ER peptide (peptide)
# peptide: PEDDWTRFSSEEIREARQAAASHAPS
# B11: GABAAR γ2 subunit GIM (GABARAP interacting motif, 398–415) (peptide, UniProt P22723-2 398-415, looked up)
# chain: ERDEEYGYECLDGKDCAS
# notes: as for B3
# B12: GABAA receptor γ2-GIM L408Q (peptide, UniProt P22723-2 398-415, looked up)
# chain: ERDEEYGYECQDGKDCAS
# notes: as for B1
# B13: GABAA receptor γ2 subunit 375-424 (domain or fragment, mouse, UniProt P22723-2 375-424, looked up)
# chain: PAPTIDIRPRSATIQMNNATHLQERDEEYGYECLDGKDCASFFCCFEDCR
# notes: as for B1
# B14: GABAA receptor γ2-GIM Y403E (peptide, UniProt P22723-2 398-415, looked up)
# chain: ERDEEEGYECLDGKDCAS
# notes: as for B1
# Experiments:
# Settings in all cases: both partners purified
# [1] = target: T1, clathrin adaptor protein AP2 (AP2 μ1 …); test: ITC; VP-ITC at 25 °C; 50 mM Tris pH 7.8, 100 mM NaCl, 1 mM EDTA, 1 mM DTT; γ2 subunit protein or peptide (100-200 μM) injected into GABARAP, GABARAPL1 or AP2 (10-20 μM) in the cell; one-site binding model
# GABARAPL1 [2] = target: T3, GABARAPL1 (mouse, UniProt Q8R3R8 1-117); test: as above
# T3 construct: GABARAPL1, mouse, UniProt Q8R3R8; also called GABARAPL1 WT; source: E. coli BL21 (DE3), purified (nickel-NTA, size exclusion)
# T3 sequence (Q8R3R8 whole entry): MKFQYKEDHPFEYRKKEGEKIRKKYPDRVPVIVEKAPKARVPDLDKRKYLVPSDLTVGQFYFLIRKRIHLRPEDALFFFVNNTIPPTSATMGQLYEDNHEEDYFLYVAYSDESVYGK
# [3] = target: T4, GABAA receptor-associated protein (GABARAP) (mouse, UniProt Q9DCD6 1-117); test: as above
# T4 construct: GABARAP, mouse, UniProt Q9DCD6; also called GABARAP WT; source: E. coli BL21 (DE3), purified (nickel-NTA, size exclusion)
# [4] = target: T5, GABAAR-associated protein (GABARAP) (mouse, UniProt Q9DCD6 1-117); test: ITC; VP-ITC, 25 °C; 50 mM Tris pH 7.8, 100 mM NaCl, 1 mM EDTA, 1 mM DTT; γ2 subunit protein or peptide (100–200 μM) injected into GABARAP, GABARAPL1 or AP2 (10–20 μM) in the cell; one-site binding model
# T5 construct: GABARAP, mouse, UniProt Q9DCD6; the thioredoxin-His6 tag was removed 'when needed'; also called GABARAP WT; source: E. coli BL21 (DE3), purified (nickel-NTA, size exclusion)
# [5] = target: T2, clathrin adaptor protein AP2 (AP2 μ1 …); test: as above
# [6] = target: T5, GABAAR-associated protein (GABARAP); test: ITC; giant ankyrin peptides and GABARAP, compared against γ2-GIM
# GABARAPL1 [7] = target: T6, GABARAPL1 (mouse, UniProt Q8R3R8 1-117); test: ITC; VP-ITC, 25 °C; 50 mM Tris pH 7.8, 100 mM NaCl, 1 mM EDTA, 1 mM DTT; γ2 subunit protein or peptide (100–200 μM) injected into GABARAP, GABARAPL1 or AP2 (10–20 μM) in the cell; one-site binding model
# T6 construct: GABARAPL1, mouse, UniProt Q8R3R8; source: E. coli BL21 (DE3), purified (nickel-NTA, size exclusion)
# T6 sequence (Q8R3R8 whole entry): as above
# GABARAP K66E = target: T7, GABARAP K66E (mouse, UniProt Q9DCD6 1-117, K66E); test: as above
# T7 construct: GABARAP, mouse, UniProt Q9DCD6, K66E; source: E. coli BL21 (DE3), purified (nickel-NTA, size exclusion)
# GABARAP E17A = target: T8, GABARAP E17A (mouse, UniProt Q9DCD6 1-117, E17A); test: as above
# T8 construct: GABARAP, mouse, UniProt Q9DCD6, E17A; source: E. coli BL21 (DE3), purified (nickel-NTA, size exclusion)
# [8] = target: T4, GABAA receptor-associated protein …; test: ITC; VP-ITC at 25 °C; 50 mM Tris pH 7.8, 100 mM NaCl, 1 mM EDTA, 1 mM DTT; γ2 subunit protein or peptide (100-200 μM) injected into GABARAP, GABARAPL1 or AP2 (10-20 μM) in the cell; one-site binding model; remark: listed apart in the source
# T5 sequence (Q9DCD6 whole entry): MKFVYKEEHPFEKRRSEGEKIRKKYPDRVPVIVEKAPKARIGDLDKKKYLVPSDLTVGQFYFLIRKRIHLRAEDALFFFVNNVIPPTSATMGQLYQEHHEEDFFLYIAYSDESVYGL
# T4 sequence (Q9DCD6 whole entry): as above
# T7 sequence (Q9DCD6 whole entry K66E): as the sequence (Q9DCD6 whole entry) above, with K66E counted along it
# T8 sequence (Q9DCD6 whole entry E17A): as the sequence (Q9DCD6 whole entry) above, with E17A counted along it
binder,measurement,setting,value
B1,Kd,[1],0.69 ± 0.06 µM
B2,Kd,[1],0.56 ± 0.02 µM
B3,Kd,GABARAPL1 [2],5.7 µM
same,stoichiometry N,GABARAPL1 [2],1.23
B4,Kd,[3],5 µM
same,stoichiometry N,[3],0.92
B5,fold increase of affinity against γ2-GIM WT,[4],~5 fold
same,fold decrease of affinity against γ2-GIM WT,[5],~10 fold
B6,Kd,[4],8.4 µM
B7,stoichiometry N,[3],0.53
B8,Kd,[4],~8 µM
B9,Kd,[3],30 µM
same,stoichiometry N,[3],0.55
B10,fold stronger affinity for GABARAP than γ2-GIM,[6],~1000 fold
B11,Kd,GABARAPL1 [7],~6.6 µM
same,fold weakening against GABARAP WT,GABARAP K66E,~4 fold
same,binding result,GABARAP E17A,binds
B12,Kd,[1],> 50 µM
B13,stoichiometry N,[3],0.92
B14,Kd,[8],1 ± 0.1 µM
same,Kd,[1],2.46 ± 0.22 µM
